From article PMC5345815

Target: recombinant gp41 of HIV-1 (ectodomain, amino acids 533-684, from clone pNL4-3), secreted from 293 cells (HIV-1 (infectious molecular clone pNL4-3))
Test: native gel or EMSA; Novex Native PAGE 4-20% Tris-Glycine gradient gel of purified gp41, Western blot with 2F5; single band below the 170 kDa marker

Substance: recombinant gp41 of HIV-1 (ectodomain, amino acids 533-684, from clone pNL4-3), secreted from 293 cells (domain or fragment)
- stoichiometry N: 3
